According to the DeepSol protein solubility set:

Test: soluble on expression in E. coli; label from the status in PepcDB or PDB records

Sequence	soluble on expression in E. coli
MSTSEDKPEIISRVVHQEGDVEIVDRSQKDKDEEKEEGKGGFLDKVKDFIHDIGEKLEGTIGFGKPTADVSAIHIPKINLERADIVVDVLVKNPNPVPIPLIDVNYLVESDGRKLVSGLIPDAGTLKAHGEETVKIPLTLIYDDIKSTYNDINPGMIIPYRIKVDLIVDVPVLGRLTLPLEKCGEIPIPKKPDVDIEKIKFQKFSLEETVAILHVRLQNMNDFDLGLNDLDCEVWLCDVSIGKAEIADSIKLDKNGSGLINVPMTFRPKDFGSALWDMIRGKGTGYTIKGNIDVDTPFGAMKLPIIKEGGETRLKKEDDDDDDEE	soluble
MGSDKIHHHHHHMGIPKRKLGERGPEVSAIGLGCMRMSFGQKKLPDRKEMIKLIRTAVELGINFFDTAEVYGPYTNEELVGEALEPFKGEVVIATKFGFELYEDGRPGWKGLNSNPEHIKKAVEGSLRRLRVEAIDILYQHRVDPNVPIEEVAGAVKELIEEGKVKHFGLCEASAETIRRAHKVCPVDVVQYEYSMWWRKPEEELLPTCEELGIGFVAYSPLGKGFLTGAIGENSKFDEEDSRSRIPRFQKENLRENLALVELRKTIAERKGATPSQIALAWLLAQKPWIVPIPGTTKLSHLLENIGGAFVELTPEELQEINDALSRIEIKGSRYPEDMEKMTYL	not soluble
MGSDKIHHHHHHMTISAQCNLQKLAFATTLAVTIVLSQGRAIGQVKHGSPIELAKADVSTAVRQDMANEVRIVGSLTPIRRSTLTSRVSSTIIELPVQIGDVVNAGDLLVRFERGALESAVTGRKAEADALSAQTELAEAVLERNTRLGERGAASEATRLAALADVLDLRAQLRSKQAEVSDAERSLSHAEVRAEFGGVIAARSVEEGQTVPLNTQLMTIVELNRLEVDAGVPTSRIPLIRLKQSVELTVEGFPGRTFSGEVARISPTADAGSRAVRVFIAVDNEEGLLRGGMFTIGDLRVDDQKDVIALPAASIRHDADGFFVLKVEAGVLQRRPVGLGRSWSDRDLVQVSGVSEGDVIVTAPLPDLVVNTPVIIEGI	not soluble
MAHHHHHHMSLTKGSKAAQDVISFLHTVGRLKVTARQGWVENQICSPESVSDHMYRMSLMCMMCPDTSLNRDRMVKMALCHDTGESIIGDISPAMKVPKEVKKQQESQAVQSLCKLVSSSPNTTFSKELGDLFEEYEAQETAESHFVKDMDLLEMVVQAHSYESANPGKDLGSFFRSGANIHHPWARAIYETLLETRPYLAYKEEQAKEASSI	soluble
GMILKTNLFGHTYQFKSITDVLAKANEEKSGDRLAGVAAESAEERVAAKVVLSKMTLGDLRNNPVVPYETDEVTRIIQDQVNDRIHDSIKNWTVEELREWILDHKTTDADIKRVARGLTSEIIAAVTKLMSNLDLIYGAKKIRVIAHANTTIGLPGTFSARLQPNHPTDDPDGILASLMEGLTYGIGDAVIGLNPVDDSTDSVVRLLNKFEEFRSKWDVPTQTCVLAHVKTQMEAMRRGAPTGLVFQSIAGSEKGNTAFGFDGATIEEARQLALQSGAATGPNVMYFETGQGSELSSDAHFGVDQVTMEARCYGFAKKFDPFLVNTVVGFIGPEYLYDSKQVIRAGLEDHFMGKLTGISMGCDVCYTNHMKADQNDVENLSVLLTAAGCNFIMGIPHGDDVMLNYQTTGYHETATLRELFGLKPIKEFDQWMEKMGFSENGKLTSRAGDASIFLK	soluble
MFKSQTAILPEAGPFALYTLLKVRQNHAHVLQALKALPALVEEINQNQPGAELTVSVAFSKGFWSHFEMASPPELIDFPELGEGETHAPSTDVDVLIHCHATRHDLLFYTLRKGISDIAQDIEIVDETYGFRYLDARDMTGFIDGTENPKAEKRAEVALVADGDFAGGSYVMVQRFVHNLPAWNRLNLAAQEKVIGRTKPDSVELENVPAASHVGRVDIKEEGKGLKIVRHSLPYGSVSGDHGLLFIAYCHTLHNFKTMLESMYGVTDGKTDQLLRFTKAVTGAYFFAPSQVMLQELTLKNQ	not soluble
MAARPITLGIDLGTTSVKAALLRAAPDDPSGFAVLASCARAARAEAAVESAVAGPQGREQDVSRILQALHECLAALPRPQLRSVVGIGVSGQMHGVVFWKTGQGCEWTEGGITPVFEPRAVSHLVTWQDGRCSSEFLASLPQPKSHLSVATGFGCATIFWLLKYRPEFLKSYDAAGTIHDYVVAMLCGLPRPLMSDQNAASWGYFNTQSQSWNVETLRSSGFPVHLLPDIAEPGSVAGRTSHMWFEIPKGTQVGVALGDLQASVYSCMAQRTDAVLNISTSVQLAASMPSGFQPAQTPDPTAPVAYFPYFNRTYLGVAASLNGGNVLATFVHMLVQWMADLGLEVEESTVYSRMIQAAVQQRDTHLTITPTVLGERHLPDQLASVTRISSSDLSLGHVTRALCRGIVQNLHSMLPIQQLQEWGVERVMGSGSALSRNDVLKQEVQRAFPLPMSFGQDVDAAVGAALVMLRRHLNQKES	not soluble
